Target: T1, HBEGF (delta TM)-ALP, Q99075
T1 chain: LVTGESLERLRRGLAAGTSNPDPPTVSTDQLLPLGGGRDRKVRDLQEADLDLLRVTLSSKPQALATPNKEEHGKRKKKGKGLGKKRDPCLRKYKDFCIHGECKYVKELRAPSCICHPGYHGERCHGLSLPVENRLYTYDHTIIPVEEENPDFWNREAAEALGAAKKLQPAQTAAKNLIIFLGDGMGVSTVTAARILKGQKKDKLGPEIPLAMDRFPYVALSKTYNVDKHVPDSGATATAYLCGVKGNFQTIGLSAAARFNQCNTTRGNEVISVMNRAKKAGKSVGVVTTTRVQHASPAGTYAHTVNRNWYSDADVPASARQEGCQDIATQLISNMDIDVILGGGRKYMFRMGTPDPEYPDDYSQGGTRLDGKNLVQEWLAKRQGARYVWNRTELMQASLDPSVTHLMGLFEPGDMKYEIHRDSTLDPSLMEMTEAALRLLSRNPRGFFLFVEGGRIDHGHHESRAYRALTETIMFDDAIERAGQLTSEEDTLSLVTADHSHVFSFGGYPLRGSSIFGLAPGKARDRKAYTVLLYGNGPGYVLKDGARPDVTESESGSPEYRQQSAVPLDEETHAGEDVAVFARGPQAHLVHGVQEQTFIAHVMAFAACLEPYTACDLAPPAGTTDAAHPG

B1: recombinant AST (human airway-specific trypsin-like enzyme expressed in insect cells with a baculovirus vector, purified as in Example 1) (peptide)
chain 1: DQAAANWLINECGAGPDLITLSEQR
chain 2: not shown
cleavage seen by western blotting of the lysate incubated with recombinant HAST (1.56 U/mL) at 37° C. overnight: A mature type having the EGF domain of the HB-EGF was cut out. The band was shifted to a position of about 12 kD.
